Test results: article PMC2289905

Legend:
[1] = molecular target: beta 1-LAP deletion mutant L40-50 (simian); test: nonreducing SDS-PAGE with immunoblot
[2] = molecular target: radioiodinated mature transforming growth factor beta 1 (UniProt P01137); test: cross-linking
[3] = molecular target: beta 1-LAP deletion mutant L50-81 (simian); test: nonreducing SDS-PAGE with immunoblot
[4] = molecular target: beta 1-LAP deletion mutant L50-85 (simian); test: nonreducing SDS-PAGE with immunoblot
[5] = molecular target: beta 1-LAP deletion mutant L85-110 (simian); test: nonreducing SDS-PAGE with immunoblot
[6] = molecular target: mature TGFbeta1 secreted by COS-1 cells transfected with wild-type pre-pro-TGFbeta1 (simian); test: nonreducing SDS-PAGE with immunoblot

Sequence of radioiodinated mature transforming growth factor beta 1 (P01137 279-390): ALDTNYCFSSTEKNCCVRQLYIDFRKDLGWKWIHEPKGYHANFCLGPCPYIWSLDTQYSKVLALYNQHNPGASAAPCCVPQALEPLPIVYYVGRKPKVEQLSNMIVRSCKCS
Sequence of beta 1-latency-associated peptide (pro domain of TGFbeta1 expressed independently), wild type (domain or fragment) (P09533 30-390): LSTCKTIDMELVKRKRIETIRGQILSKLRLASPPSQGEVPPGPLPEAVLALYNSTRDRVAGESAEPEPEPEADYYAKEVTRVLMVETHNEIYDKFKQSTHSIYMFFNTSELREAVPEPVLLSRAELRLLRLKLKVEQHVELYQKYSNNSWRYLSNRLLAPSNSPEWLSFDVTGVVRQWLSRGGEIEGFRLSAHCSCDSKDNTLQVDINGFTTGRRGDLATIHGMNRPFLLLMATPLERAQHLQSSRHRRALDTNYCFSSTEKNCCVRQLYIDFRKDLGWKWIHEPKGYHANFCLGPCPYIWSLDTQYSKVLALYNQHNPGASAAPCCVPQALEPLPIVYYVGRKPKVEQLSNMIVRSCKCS

A stoichiometry N [1] of 2 and a cross-linking (% of wild-type) (% of wild-type) [2] of 10 were found for “beta 1-LAP deletion mutant L40-50 (domain or fragment)” in this work.
A stoichiometry N [3] of 2 was found for “beta 1-LAP deletion mutant L50-81 (domain or fragment)” in this work.
A stoichiometry N [4] of 2 was found for “beta 1-LAP deletion mutant L50-85 (domain or fragment)” in this work.
A stoichiometry N [5] of 2 and a cross-linking (% of wild-type) (% of wild-type) [2] of 12 were found for “beta 1-LAP deletion mutant L85-110 (domain or fragment)” in this work.
A cross-linking (% of wild-type) (% of wild-type) [2] of 100 was found for “beta 1-latency-associated peptide (pro domain of TGFbeta1 expressed independently), wild type (domain or fragment)” in this work.
A stoichiometry N [6] of 2 was found for “mature TGFbeta1 secreted by COS-1 cells transfected with wild-type pre-pro-TGFbeta1 (ligand)” in this work.
